# In paper PMC10174534:
# Target: SARS-CoV-2 ΔN135 spike (S) protein, soluble prefusion-stabilised ectodomain trimer (SARS-CoV-2) (UniProt P0DTC2)
# Assay: SEC-MALS
substance,measurement,value
"SARS-CoV-2 ΔN135 spike (S) protein, soluble prefusion-stabilised ectodomain trimer (from UniProt P0DTC2 22-1208) (natural protein)",stoichiometry N,3
